Test results reported in US20070248602A1.

Tests used:
[1] = biological target: human FcγRIIIa (FIG. 41 data; allotype not given) (human) (UniProt P08637); assay: AlphaScreen competition
[2] = biological target: FcγRIIIa on human PBMCs expressing heterozygous V158/F158 FcγRIIIa (human) (UniProt P08637); assay: cell-based or functional assay
Sequence of FcγRIIIa on human PBMCs expressing heterozygous V158/F158 FcγRIIIa (human) (P08637 17-254): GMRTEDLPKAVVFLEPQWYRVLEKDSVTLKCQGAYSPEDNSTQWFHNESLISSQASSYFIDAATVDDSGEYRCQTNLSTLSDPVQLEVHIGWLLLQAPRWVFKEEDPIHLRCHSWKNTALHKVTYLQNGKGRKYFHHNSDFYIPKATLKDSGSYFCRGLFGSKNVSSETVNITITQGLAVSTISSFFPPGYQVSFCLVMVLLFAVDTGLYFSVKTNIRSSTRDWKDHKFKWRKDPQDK

Sequence of human FcγRIIIa (FIG. 41 data; allotype not given) (human) (P08637 17-208): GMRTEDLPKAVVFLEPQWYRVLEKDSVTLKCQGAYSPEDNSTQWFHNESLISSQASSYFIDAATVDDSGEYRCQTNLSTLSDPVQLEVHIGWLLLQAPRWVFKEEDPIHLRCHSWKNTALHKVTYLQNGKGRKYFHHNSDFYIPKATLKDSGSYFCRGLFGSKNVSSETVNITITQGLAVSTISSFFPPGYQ

With “S239D/A330L/I332E Fc variant (FIG. 41 data, antibody context not told in the text)” as the substance, how does the FcγRIIIa-fold [1] read?
The FcγRIIIa-fold was 139 fold.

What about the FcγRIIIa-fold:FcγRIIb-fold [1] of the same substance?
The FcγRIIIa-fold:FcγRIIb-fold was 18.

Which FcγRIIIa-fold [1] does the source give for “S239D/I332E Fc variant (FIG. 41 data, antibody context not told in the text)” here?
The FcγRIIIa-fold was 192 fold.

Which results are given for V264I/I332E alemtuzumab (antibody)?
ADCC EC50, DoHH-2 target cells [2]: 4 ng/mL; ADCC log(EC50), DoHH-2 target cells [2]: 0.6

What does the source list for S239D/I332E alemtuzumab (antibody)?
ADCC EC50, DoHH-2 target cells [2]: 3 ng/mL; ADCC Fold WT, DoHH-2 target cells [2]: 3.3 fold; ADCC log(EC50), DoHH-2 target cells [2]: 0.49
